Biological target: the molecule itself
Assay: co-IP; competitive co-IP: HEK293T transfected with equimolar DNA of three constructs (one bait with one tag, Human and Chimp prey with the other tag); IP against the bait's tag, western blot against the prey's tag; replicated with reversed tags

B1: full-length human PRDM9 (B allele), C-terminally tagged with HA or V5 (natural protein)
chain: not shown
notes: 218 synonymous base changes in the zinc finger exon; An HA and a V5 version were made; The C-terminal cassette is linker-TwinStrep-linker-HA/V5-linker-P2A followed by YFP; vector pLENTI CMV/TO Puro DEST (Addgene plasmid # 17293); YFP probably separates at the P2A site (surmised); also called Human-HA; Human-V5; source: HEK293T, transfected (FuGENE-HD), in lysate; not shown: HA or V5, C-terminal, …
fold more efficiently co-precipitated than the Chimp prey (Human bait): > 2 fold

From article doi:10.1101/144295, “Human PRDM9 can bind and activate promoters, and other zinc-finger proteins associate with reduced recombination in cis” (bioRxiv, 2017)
